Results taken from ChEMBL document CHEMBL1122090, “Species- or isozyme-specific enzyme inhibitors. 7. Selective effects in inhibitions of rat adenylate kinase isozymes by adenosine 5'-phosphate derivatives” (J Med Chem, 1982).

B1: GTP:AMP phosphotransferase AK3, mitochondrial (Rattus norvegicus), P29411 (protein)
chain: MGASGRLLRAVIMGAPGSGKGTGSSRITKHFELKHLSSGDLLRQNMLQGTEIAVLAKSFIDQGKLIPDDDMTRLALHELKNLTQCSWLLDGFPRTLPQAEALDRVYQIDTVINLNVPFEVIKLRLTARWIHPASGRVYNIEFNPPKTVGIDDLTGEPLIQREDDKPETVIKRLKAYEAQTEPVLQYYQKKGVLETFSGTETNKIRPHVYSFLQMKVPETIQKASVTP
B2: Adenylate kinase isoenzyme 1 (Rattus norvegicus), P39069 (protein)
chain: MEDKLKKAKIIFVVGGPGSGKGTQCEKIVQKYGYTHLSTGDLLRAEVSSGSSRGKMLSSIMEKGELVPLETVLDMLRDAMLAKVDSSNGFLIDGYPREVKQGEEFERKIAQPTLLLYVDAGPETMTQRLLKRGETSGRVDDNEETIKKRLETYYKATEPVISFYDKRGIVRKVNAEGSVDTVFSQVCTYLDSLK

Tests used:
[1] = substrate: C[C@@H]1[C@H](O)[C@@H](COP(=O)(O)O)O[C@H]1n1cnc2c(N)ncnc21; test: (§1) Concentration for half-maximal velocity to Adenylate kinase III
[2] = substrate: Nc1ncnc2c1ncn2[C@@H]1O[C@H](/C=C/P(=O)(O)O)[C@@H](O)[C@H]1O; test: as §1
[3] = substrate: CCNc1nc(N)c2ncn([C@@H]3O[C@H](COP(=O)(O)O)[C@@H](O)[C@H]3O)c2n1; test: as §1
[4] = substrate: CCC[C@H](OP(=O)(O)O)[C@H]1OC(n2cnc3c(N)ncnc32)[C@H](O)[C@@H]1O; test: as §1
[5] = substrate: Nc1nc(N)c2ncn([C@@H]3O[C@H](COP(=O)(O)O)[C@@H](O)[C@H]3O)c2n1; test: as §1
[6] = substrate: Nc1ncnc2c1ncn2[C@@H]1O[C@H](CCP(=O)(O)O)[C@@H](O)[C@H]1O; test: as §1
[7] = substrate: CNc1nc(N)c2ncn([C@@H]3O[C@H](COP(=O)(O)O)[C@@H](O)[C@H]3O)c2n1; test: as §1
[8] = substrate: Nc1nc(Cl)nc2c1ncn2[C@@H]1O[C@H](COP(=O)(O)O)[C@@H](O)[C@H]1O; test: as §1
[9] = substrate: C[C@H](OP(=O)(O)O)[C@H]1OC(n2cnc3c(N)ncnc32)[C@H](O)[C@@H]1O; test: as §1
[10] = substrate: Nc1ncnc2c1ncn2[C@@H]1O[C@H](COP(=O)(O)O)[C@@H](O)[C@H]1O; test: as §1
[11] = substrate: C[C@@H]1[C@H](O)[C@@H](COP(=O)(O)O)O[C@H]1n1cnc2c(N)ncnc21; test: (§2) Concentration of compound for half-maximal velocity to Adenylate kinase M isoenzyme
[12] = substrate: Nc1ncnc2c1ncn2[C@@H]1O[C@H](/C=C/P(=O)(O)O)[C@@H](O)[C@H]1O; test: as §2
[13] = substrate: CCNc1nc(N)c2ncn([C@@H]3O[C@H](COP(=O)(O)O)[C@@H](O)[C@H]3O)c2n1; test: as §2
[14] = substrate: Nc1nc(N)c2ncn([C@@H]3O[C@H](COP(=O)(O)O)[C@@H](O)[C@H]3O)c2n1; test: as §2
[15] = substrate: Nc1ncnc2c1ncn2[C@@H]1O[C@H](CCP(=O)(O)O)[C@@H](O)[C@H]1O; test: as §2
[16] = substrate: CNc1nc(N)c2ncn([C@@H]3O[C@H](COP(=O)(O)O)[C@@H](O)[C@H]3O)c2n1; test: as §2
[17] = substrate: CN(C)c1nc(N)c2ncn(C3O[C@H](COP(=O)(O)O)[C@@H](O)[C@H]3O)c2n1; test: as §2
[18] = substrate: Nc1nc(Cl)nc2c1ncn2[C@@H]1O[C@H](COP(=O)(O)O)[C@@H](O)[C@H]1O; test: as §2
[19] = substrate: C[C@H](OP(=O)(O)O)[C@H]1OC(n2cnc3c(N)ncnc32)[C@H](O)[C@@H]1O; test: as §2
[20] = substrate: Nc1ncnc2c1ncn2[C@@H]1O[C@H](COP(=O)(O)O)[C@@H](O)[C@H]1O; test: as §2

Protein | Km [1] | Km [2] | Km [3] | Km [4] | Km [5] | Km [6] | Km [7] | Km [8] | Km [9] | Km [10] | Km [11] | Km [12] | Km [13] | Km [14] | Km [15] | Km [16] | Km [17] | Km [18] | Km [19] | Km [20]
B1 | 790 µM | 1400 µM | 5400 µM | 830 µM | 1900 µM | 2200 µM | 3700 µM | 1600 µM | 1100 µM | 80 µM | – | – | – | – | – | – | – | – | – | –
B2 | – | – | – | – | – | – | – | – | – | – | 5500 µM | 2000 µM | 4200 µM | 3500 µM | 4200 µM | 2900 µM | 7500 µM | 2700 µM | 2000 µM | 580 µM
